PMC11697783, “Structure/function of ATP sulfurylase domain of human 3′-phosphoadenosine 5′-phosphosulfate synthase (hPAPSS)” (Biochemistry and Biophysics Reports, 2024)

Tests used:
purified protein [1] = substrate: Nc1ncnc2c1ncn2[C@@H]1O[C@H](COP(=O)(O)OP(=O)(O)OP(=O)(O)O)[C@@H](O)[C@H]1O; assay: purified protein; format: biochemical, Homo sapiens; settings: Tris-HCl pH 8.0, MgCl2, 37 °C; for K0.5: half maximal estimate, biphasic response, ATPS + APSK combined activity (two ATP sites)
purified protein [2] = substrate: O=S(=O)(O)O; assay: purified protein; format: biochemical, Homo sapiens; settings: fixed ATP, Tris-HCl pH 8.0, MgCl2, 37 °C, labelled compound

B1: COOH-terminal (aa 220-623) ATPS domain of hPAPSS1 (Homo sapiens) (protein)
chain: LQERDIVPVDASYEVKELYVPENKLHLAKTDAETLPALKINKVDMQWVQVLAEGWATPLNGFMREREYLQCLHFDCLLDGGVINLSVPIVLTATHEDKERLDGCTAFALMYEGRRVAILRNPEFFEHRKEERCARQWGTTCKNHPYIKMVMEQGDWLIGGDLQVLDRVYWNDGLDQYRLTPTELKQKFKDMNADAVFAFQLRNPVHNGHALLMQDTHKQLLERGYRRPVLLLHPLGGWTKDDDVPLMWRMKQHAAVLEEGVLNPETTVVAIFPSPMMYAGPTEVQWHCRARMVAGANFYIVGRDPAGMPHPETGKDLYEPSHGAKVLTMAPGLITLEIVPFRVAAYNKKKKRMDYYDSEHHEDFEFISGTRMRKLAREGQKPPEGFMAPKAWTVLTEYYKSLEK
notes: C-terminal ATP sulfurylase domain with linker, residues 220-623, APS kinase domain deleted; recombinant, purified
Km (purified protein [1]; fixed sulfate, ATP sulfurylase activity): 2.2 mM
Km (purified protein [2]; ATP sulfurylase activity): 0.53 mM

B2: hPAPSS1 (full length, residues 1-623) (Homo sapiens) (protein)
chain: MEIPGSLCKKVKLSNNAQNWGMQRATNVTYQAHHVSRNKRGQVVGTRGGFRGCTVWLTGLSGAGKTTVSMALEEYLVCHGIPCYTLDGDNIRQGLNKNLGFSPEDREENVRRIAEVAKLFADAGLVCITSFISPYTQDRNNARQIHEGASLPFFEVFVDAPLHVCEQRDVKGLYKKARAGEIKGFTGIDSEYEKPEAPELVLKTDSCDVNDCVQQVVELLQERDIVPVDASYEVKELYVPENKLHLAKTDAETLPALKINKVDMQWVQVLAEGWATPLNGFMREREYLQCLHFDCLLDGGVINLSVPIVLTATHEDKERLDGCTAFALMYEGRRVAILRNPEFFEHRKEERCARQWGTTCKNHPYIKMVMEQGDWLIGGDLQVLDRVYWNDGLDQYRLTPTELKQKFKDMNADAVFAFQLRNPVHNGHALLMQDTHKQLLERGYRRPVLLLHPLGGWTKDDDVPLMWRMKQHAAVLEEGVLNPETTVVAIFPSPMMYAGPTEVQWHCRARMVAGANFYIVGRDPAGMPHPETGKDLYEPSHGAKVLTMAPGLITLEIVPFRVAAYNKKKKRMDYYDSEHHEDFEFISGTRMRKLAREGQKPPEGFMAPKAWTVLTEYYKSLEK
notes: full length 1-623 (APSK + ATPS domains); E. coli BL21(DE3) pLys; Ni column and gel filtration
K0.5 (purified protein [1]): 4.3 mM
Km (purified protein [2]; ATPS + APSK combined activity): 0.33 mM

B3: hPAPSS1 (full length, residues 1-623) (Homo sapiens; N426K) (protein)
chain: MEIPGSLCKKVKLSNNAQNWGMQRATNVTYQAHHVSRNKRGQVVGTRGGFRGCTVWLTGLSGAGKTTVSMALEEYLVCHGIPCYTLDGDNIRQGLNKNLGFSPEDREENVRRIAEVAKLFADAGLVCITSFISPYTQDRNNARQIHEGASLPFFEVFVDAPLHVCEQRDVKGLYKKARAGEIKGFTGIDSEYEKPEAPELVLKTDSCDVNDCVQQVVELLQERDIVPVDASYEVKELYVPENKLHLAKTDAETLPALKINKVDMQWVQVLAEGWATPLNGFMREREYLQCLHFDCLLDGGVINLSVPIVLTATHEDKERLDGCTAFALMYEGRRVAILRNPEFFEHRKEERCARQWGTTCKNHPYIKMVMEQGDWLIGGDLQVLDRVYWNDGLDQYRLTPTELKQKFKDMNADAVFAFQLRNPVHKGHALLMQDTHKQLLERGYRRPVLLLHPLGGWTKDDDVPLMWRMKQHAAVLEEGVLNPETTVVAIFPSPMMYAGPTEVQWHCRARMVAGANFYIVGRDPAGMPHPETGKDLYEPSHGAKVLTMAPGLITLEIVPFRVAAYNKKKKRMDYYDSEHHEDFEFISGTRMRKLAREGQKPPEGFMAPKAWTVLTEYYKSLEK
notes: as for B2
K0.5 (purified protein [1]): 3.7 mM
Km (purified protein [2]; ATPS + APSK combined activity): 0.44 mM
